Assay results from patent US20100298202A1, “BRI POLYPEPTIDES AND REDUCING AB AGGREGATION” (MAYO FOUNDATION FOR MEDICAL EDUCATION AND RESEARCH, priority 2007, published 2010).

Target: Aβ42 (Homo sapiens, UniProt P05067)
Test: Aβ42 aggregation with oxidized or reduced BRI polypeptides (native gel/western blot, ELISA-based assay)
Assay type: biochemical
Conditions: oxidized form (no DTT), 2 μM polypeptide, 1.5 μM Aβ42, 5 hours at 37° C.
Description: FIG. 10. […] BRI polypeptides in DMSO were diluted into 150 mM NaCl, 20 mM Tris-HCl, pH7.4 (TBS) at a final concentration of 2 μM in the absence (OX) or presence (RED) of 2 mM DTT. Mixtures were incubated for 10 minutes at room temperature and then chilled to 0° C. A control samples lacking any BRI polypeptide were prepared identically using DMSO alone. Aβ42 in DMSO then was added to a final concentration of 1.5 μM, and the mixtures divided into two aliquots. One aliquot was incubated for 5 hours at 0° C., and the other was incubated at 37° C. to induce Aβ42 aggregation. At the end of the incubation, all samples were returned to 0° C. to stop further aggregation prior to analysis. Aggregation was assessed either by native gel electrophoresis followed by western blotting (panel A) or by the ELISA-based assay (panel B).

Chain of Aβ42 (P05067 672-713 limits assumed): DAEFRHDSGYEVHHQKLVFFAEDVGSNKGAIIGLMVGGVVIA

Row | Substance | Aβ42 aggregation in vitro
1 | Bri24: C-terminal fragment of BRI1 (ITM2A), AIDKCWKIRHFPNEFIVETICICQD (SEQ ID NO: 5) | inhibit Aβ42 aggregation
2 | Bri25: C-terminal fragment of BRI3 (ITM2C), GAICNCNAIRHFENTFVVETLICGVV (SEQ ID NO: 6) | inhibit Aβ42 aggregation
